For test [1], the target named is T1, human FcγRIIa(R) (human, UniProt P12318 36-217).
T1 construct: also called hFcgRIIa(R); FcγRIIa type R
T1 chain: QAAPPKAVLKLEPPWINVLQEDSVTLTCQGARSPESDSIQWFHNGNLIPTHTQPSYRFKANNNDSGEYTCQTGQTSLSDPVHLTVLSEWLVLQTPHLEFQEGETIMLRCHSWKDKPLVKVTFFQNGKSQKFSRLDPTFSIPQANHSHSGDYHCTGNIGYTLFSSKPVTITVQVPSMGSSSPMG
Put plainly: SPR (Biacore), antibody captured on chip, FcgR injected, HBS-EP+, 25 C; bound amount corrected by captured amount; reference GpH7-G1d/GpL16-k0. A general note: In SPR one partner is held on a chip, and binding of the other changes the refractive index at the surface.
Procedure: (§1) Interaction between each modified antibody and Fcγ receptor prepared in the manner described above was analyzed using the BIACORE™ T100 surface plasmon resonance system (GE Healthcare), BIACORE™ T200 surface plasmon resonance system (GE Healthcare), BIACORE™ A100 surface plasmon resonance system or BIACORE™ 4000 surface plasmon resonance system. HBS-EP+(GE Healthcare) was used for the running buffer, and measurements were carried out at 25° C. The chips used were chips in which antigen peptides, Protein A (Thermo Scientific), Protein A/G (Thermo Scientific) or Protein L (ACTIGEN® protein (Alltech or BioVision) were immobilized on the Series S Sensor Chip CM5 (GE Healthcare) or Series S Sensor Chip CM4 (GE Healthcare) by amine coupling, or chips in which preliminarily biotinylated antigen peptides were allowed to interact and then immobilized on the Series S Sensor Chip SA (certified) (GE Healthcare). The target antibodies were captured on these sensor chips, Fcγ receptor diluted with the running buffer was allowed to interact, followed by measurement of the amount of bound antibody. The amounts bound were compared between antibodies. However, since the amount of Fcγ receptor bound depends on the amount of captured antibody, the values used for comparison were first corrected by dividing the amount of Fcγ receptor bound by the captured amount of each antibody. Through reaction with 10 mM glycine-HCl at pH 1.5, the sensor chips were regenerated by washing off antibody captured on the sensor chips and used repeatedly.

In test [2] the target is T2, human FcγRIIIa(F) (human, UniProt P08637 17-208, limits assumed).
T2 construct: also called hFcgRIIIa(F); allotype F158
The test is described as above.
T2 sequence (P08637 other isoform, or with tags, fused parts or gaps limits assumed): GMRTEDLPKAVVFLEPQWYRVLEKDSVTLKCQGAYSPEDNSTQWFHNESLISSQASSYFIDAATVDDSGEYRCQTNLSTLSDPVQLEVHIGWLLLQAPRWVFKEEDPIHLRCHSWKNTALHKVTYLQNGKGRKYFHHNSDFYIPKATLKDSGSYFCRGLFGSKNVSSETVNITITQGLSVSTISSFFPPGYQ
Procedure: as §1

A further test deals with T3, human FcγRIa (human, UniProt P12314 16-292, limits assumed).
T3 construct: also called hFcgRIa
T3 sequence (P12314 16-292 limits assumed): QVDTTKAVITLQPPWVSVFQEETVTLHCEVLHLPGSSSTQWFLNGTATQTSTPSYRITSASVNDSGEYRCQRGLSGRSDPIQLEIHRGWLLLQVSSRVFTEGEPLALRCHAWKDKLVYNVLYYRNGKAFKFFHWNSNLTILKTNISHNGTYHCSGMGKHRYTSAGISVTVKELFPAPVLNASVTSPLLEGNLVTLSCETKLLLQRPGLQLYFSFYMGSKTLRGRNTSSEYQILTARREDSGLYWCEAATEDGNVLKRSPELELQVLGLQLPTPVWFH
Described as above.

Test [3] addresses T4, human FcγRIIb (human, UniProt P31994 43-217, limits assumed).
T4 construct: also called hFcgRIIb
T4 sequence: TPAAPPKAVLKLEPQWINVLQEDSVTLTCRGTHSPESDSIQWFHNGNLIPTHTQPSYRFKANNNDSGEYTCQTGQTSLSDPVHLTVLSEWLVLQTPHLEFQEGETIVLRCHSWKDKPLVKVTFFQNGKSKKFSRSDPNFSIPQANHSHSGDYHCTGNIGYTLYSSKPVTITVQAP
The description is as above.
Procedure: as §1

The target of test [4] is T5, human FcγRIIa(H) (human, UniProt P12318 36-217).
T5 construct: also called hFcgRIIa(H); FcγRIIa type H
T5 sequence: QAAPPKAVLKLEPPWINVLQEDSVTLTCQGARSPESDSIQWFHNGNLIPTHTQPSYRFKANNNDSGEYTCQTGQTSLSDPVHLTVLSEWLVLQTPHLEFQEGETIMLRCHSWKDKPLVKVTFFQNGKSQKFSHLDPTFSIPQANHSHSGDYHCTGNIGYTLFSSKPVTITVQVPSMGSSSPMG
Described as above.
Procedure: as §1

Test [5] deals with T6, human FcγRIIIa(F) (human, UniProt P08637 17-208, limits assumed).
T6 construct: Soluble analyte in SPR; allotype F158 stood in the assay; also called FcgRIIIaF; FcγRIIIa allotype F158
The test is described as follows: SPR, captured antibody, FcγR as analyte.
T6 sequence (P08637 other isoform, or with tags, fused parts or gaps limits assumed): as the sequence (P08637 other isoform, or with tags, fused parts or gaps limits assumed) above
Procedure: as §1
(§2) Binding strength was evaluated according to the following method based on the results of analyzing the interaction with each FcγR. […] That value was then further multiplied by 100, and the resulting value was used as an indicator of relative binding activity to each FcγR.

Test [6] concerns the target T7, human FcγRIIIa(F) (human, UniProt P08637 17-208, limits assumed).
T7 construct: also called FcgRIIIaF; FcγRIIIa allotype F158
Put plainly: SPR, captured antibody, FcγR analyte; bound amount per captured antibody.
T7 sequence (P08637 other isoform, or with tags, fused parts or gaps limits assumed): as above
Procedure: as §1, §2

The target of test [7] is T8, human FcγRIIa(R) (human, UniProt P12318 36-217).
T8 construct: Soluble analyte in SPR; also called FcgRIIaR; FcγRIIa type R
T8 chain: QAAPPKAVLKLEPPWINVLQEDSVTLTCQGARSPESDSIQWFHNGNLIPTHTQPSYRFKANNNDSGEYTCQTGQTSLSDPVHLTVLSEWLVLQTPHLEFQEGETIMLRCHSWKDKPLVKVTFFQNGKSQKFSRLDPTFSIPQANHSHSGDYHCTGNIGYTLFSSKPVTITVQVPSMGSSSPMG
The test is described as follows: SPR, captured antibody, FcγR as analyte.
Procedure: as §1, §2

The target in test [8] is T9, human FcγRIIb (human, UniProt P31994 43-217, limits assumed).
T9 construct: also called FcgRIIb; FcγIIB
T9 sequence: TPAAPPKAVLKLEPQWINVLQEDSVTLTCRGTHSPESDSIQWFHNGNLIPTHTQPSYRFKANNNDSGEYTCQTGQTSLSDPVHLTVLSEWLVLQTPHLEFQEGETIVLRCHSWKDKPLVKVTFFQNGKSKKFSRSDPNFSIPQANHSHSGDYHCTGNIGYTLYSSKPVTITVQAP
The test is described as follows: SPR, captured antibody, FcγR analyte; bound amount per captured antibody.
Procedure: as §1, §2

The target in test [9] is T10, human FcγRIIb (human, UniProt P31994 43-217, limits assumed).
T10 construct: Soluble analyte in SPR; also called FcgRIIb; FcγIIB
T10 sequence: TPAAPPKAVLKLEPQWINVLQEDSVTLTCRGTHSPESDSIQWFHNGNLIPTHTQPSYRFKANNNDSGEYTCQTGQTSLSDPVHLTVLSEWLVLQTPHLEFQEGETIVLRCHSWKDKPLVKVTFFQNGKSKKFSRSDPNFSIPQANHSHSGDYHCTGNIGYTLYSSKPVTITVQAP
Put plainly: SPR, captured antibody, FcγR as analyte.
Procedure: as §1, §2

The target in test [10] is T11, human FcγRIIa(H) (human, UniProt P12318 36-217).
T11 construct: Soluble analyte in SPR; also called FcgRIIaH; FcγRIIa type H
T11 sequence: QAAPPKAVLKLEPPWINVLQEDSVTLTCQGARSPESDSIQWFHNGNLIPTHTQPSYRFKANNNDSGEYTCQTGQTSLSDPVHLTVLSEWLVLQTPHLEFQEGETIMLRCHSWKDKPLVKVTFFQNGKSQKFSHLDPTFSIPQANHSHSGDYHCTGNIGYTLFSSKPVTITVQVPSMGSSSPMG
Put plainly: SPR, captured antibody, FcγR as analyte.
Procedure: as §1, §2

The target of the next test is T12, human FcγRIIa type R (human, UniProt P12318 36-217).
T12 construct: also called FcgRIIaR; FcγRIIa(R)
T12 chain: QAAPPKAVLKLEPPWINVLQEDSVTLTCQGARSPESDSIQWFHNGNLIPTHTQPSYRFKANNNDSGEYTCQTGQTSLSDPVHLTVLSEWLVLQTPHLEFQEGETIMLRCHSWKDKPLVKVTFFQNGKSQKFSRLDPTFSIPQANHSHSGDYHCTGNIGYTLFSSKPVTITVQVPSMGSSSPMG
The test is described as follows: SPR (Biacore), amount of FcγR bound to captured antibody relative to IL6R-BF648/IL6R-L x100.

Procedure for human FcγRIIa type R: According to the following method, relative binding activities were calculated for the results of analyzing interactions with the respective FcγRs.
Procedure for human FcγRIa: as §1

B1: GpH7-B3/GpL16-k0 (antibody, human IgG1)
heavy: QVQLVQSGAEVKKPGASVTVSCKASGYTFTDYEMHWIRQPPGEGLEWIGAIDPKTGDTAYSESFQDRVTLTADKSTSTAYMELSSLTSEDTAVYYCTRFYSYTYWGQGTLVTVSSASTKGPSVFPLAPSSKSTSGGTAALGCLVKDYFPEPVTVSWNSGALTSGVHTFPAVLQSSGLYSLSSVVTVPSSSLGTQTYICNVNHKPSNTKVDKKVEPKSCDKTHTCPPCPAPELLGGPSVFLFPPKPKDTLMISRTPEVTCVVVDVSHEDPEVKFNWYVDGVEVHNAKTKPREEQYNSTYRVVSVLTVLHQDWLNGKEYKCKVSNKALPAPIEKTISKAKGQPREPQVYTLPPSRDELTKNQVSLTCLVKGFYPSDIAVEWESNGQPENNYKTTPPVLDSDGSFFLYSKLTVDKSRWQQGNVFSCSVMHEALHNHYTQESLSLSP
light: DIVMTQSPLSLPVTPGEPASISCQASESLVHSNRNTYLHWYLQKPGQSPQLLIYKVSNRFSGVPDRFSGSGSGTDFTLKISRVEAEDVGVYYCSQNTHVPPTFGQGTKVEIE
notes: also called anti-glypican-3 antibody with B3 constant region (G1d with K439E)
Turning to B1, the “relative binding activity (amount bound / amount bound by GpH7-G1d/GpL16-k0 x 100)” value stood at 94 with human FcγRIIa(R) [1]; 88 in the test with human FcγRIIIa(F) [2]; 109 with human FcγRIa; 88 with human FcγRIIb [3]; 92 in the test with human FcγRIIa(H) [4].

B2: GpH7-B3 variant P238W/GpL16-k0 (antibody, human IgG1)
heavy: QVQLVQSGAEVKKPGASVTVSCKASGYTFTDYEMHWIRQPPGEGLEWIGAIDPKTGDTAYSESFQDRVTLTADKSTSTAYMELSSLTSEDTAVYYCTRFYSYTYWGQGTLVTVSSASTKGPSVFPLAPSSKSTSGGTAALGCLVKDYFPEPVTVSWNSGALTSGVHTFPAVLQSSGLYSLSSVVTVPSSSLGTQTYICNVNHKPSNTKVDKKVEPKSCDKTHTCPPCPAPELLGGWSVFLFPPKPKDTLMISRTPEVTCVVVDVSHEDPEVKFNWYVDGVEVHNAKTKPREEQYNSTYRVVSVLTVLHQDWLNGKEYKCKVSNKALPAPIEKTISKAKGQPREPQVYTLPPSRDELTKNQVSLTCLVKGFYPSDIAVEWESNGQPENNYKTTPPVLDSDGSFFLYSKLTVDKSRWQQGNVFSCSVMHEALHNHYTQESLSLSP
light: DIVMTQSPLSLPVTPGEPASISCQASESLVHSNRNTYLHWYLQKPGQSPQLLIYKVSNRFSGVPDRFSGSGSGTDFTLKISRVEAEDVGVYYCSQNTHVPPTFGQGTKVEIE
notes: copies: 2 + 2
Turning to B2, in the test with human FcγRIIIa(F) [5], the relative binding activity is 1 % of GpH7-B3/GpL16-k0.

B3: GpH7-B3 G236R/GpL16-k0 (antibody, human IgG1)
heavy: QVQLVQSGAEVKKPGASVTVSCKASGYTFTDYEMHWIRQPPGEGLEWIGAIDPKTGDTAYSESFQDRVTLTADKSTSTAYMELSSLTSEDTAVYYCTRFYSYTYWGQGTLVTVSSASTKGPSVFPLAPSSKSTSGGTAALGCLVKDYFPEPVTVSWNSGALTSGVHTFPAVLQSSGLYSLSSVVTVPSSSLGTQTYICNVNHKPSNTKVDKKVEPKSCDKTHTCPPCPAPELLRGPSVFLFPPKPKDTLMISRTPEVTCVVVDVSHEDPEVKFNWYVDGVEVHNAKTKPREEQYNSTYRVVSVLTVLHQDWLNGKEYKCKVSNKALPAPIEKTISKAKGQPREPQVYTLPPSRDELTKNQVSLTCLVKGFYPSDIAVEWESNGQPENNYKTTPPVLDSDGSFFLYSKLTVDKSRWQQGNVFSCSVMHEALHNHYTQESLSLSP
light: DIVMTQSPLSLPVTPGEPASISCQASESLVHSNRNTYLHWYLQKPGQSPQLLIYKVSNRFSGVPDRFSGSGSGTDFTLKISRVEAEDVGVYYCSQNTHVPPTFGQGTKVEIE
notes: anti-glypican-3 IgG1; B3 constant region (G1d with K439E); also called B3 variant; copies: 2 + 2
As for B3, the relative binding activity in the test with human FcγRIIIa(F) [6] is 1 % of GpH7-B3/GpL16-k0.

B4: GpH7-B3 variant D265F/GpL16-k0 (antibody, human IgG1)
heavy: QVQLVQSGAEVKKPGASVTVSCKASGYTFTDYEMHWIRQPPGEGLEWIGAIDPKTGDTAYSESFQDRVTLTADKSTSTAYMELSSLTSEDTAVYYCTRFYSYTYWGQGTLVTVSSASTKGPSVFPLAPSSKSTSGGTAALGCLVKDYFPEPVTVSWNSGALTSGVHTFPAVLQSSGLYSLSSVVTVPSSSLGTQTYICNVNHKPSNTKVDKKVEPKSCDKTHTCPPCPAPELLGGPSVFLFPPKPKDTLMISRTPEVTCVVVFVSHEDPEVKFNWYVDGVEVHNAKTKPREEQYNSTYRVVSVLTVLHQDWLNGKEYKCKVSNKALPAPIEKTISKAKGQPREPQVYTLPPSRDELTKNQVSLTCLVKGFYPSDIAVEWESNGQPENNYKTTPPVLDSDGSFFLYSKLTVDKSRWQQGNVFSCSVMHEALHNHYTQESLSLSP
light: DIVMTQSPLSLPVTPGEPASISCQASESLVHSNRNTYLHWYLQKPGQSPQLLIYKVSNRFSGVPDRFSGSGSGTDFTLKISRVEAEDVGVYYCSQNTHVPPTFGQGTKVEIE
notes: copies: 2 + 2
For the molecule B4, the relative binding activity with human FcγRIIa(R) [7] was 1 % of GpH7-B3/GpL16-k0.

B5: GpH7-B3 L235R/GpL16-k0 (antibody, human IgG1)
heavy: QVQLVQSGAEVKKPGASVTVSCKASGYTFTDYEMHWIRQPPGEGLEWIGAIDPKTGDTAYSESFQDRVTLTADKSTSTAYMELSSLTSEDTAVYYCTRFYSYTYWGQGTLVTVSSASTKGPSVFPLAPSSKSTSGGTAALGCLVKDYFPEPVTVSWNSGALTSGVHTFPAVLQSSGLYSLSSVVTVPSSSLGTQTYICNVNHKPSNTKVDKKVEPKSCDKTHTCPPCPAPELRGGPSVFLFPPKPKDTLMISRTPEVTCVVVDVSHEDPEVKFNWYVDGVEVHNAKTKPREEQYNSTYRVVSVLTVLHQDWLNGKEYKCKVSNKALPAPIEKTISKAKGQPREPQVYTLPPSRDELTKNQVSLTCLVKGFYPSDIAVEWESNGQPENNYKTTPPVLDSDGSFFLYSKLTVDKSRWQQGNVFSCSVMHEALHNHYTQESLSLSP
light: DIVMTQSPLSLPVTPGEPASISCQASESLVHSNRNTYLHWYLQKPGQSPQLLIYKVSNRFSGVPDRFSGSGSGTDFTLKISRVEAEDVGVYYCSQNTHVPPTFGQGTKVEIE
notes: as for B3
With B5, the relative binding activity with human FcγRIIb [8] was 2 % of GpH7-B3/GpL16-k0.

B6: GpH7-B3 variant P238K/GpL16-k0 (antibody, human IgG1)
heavy: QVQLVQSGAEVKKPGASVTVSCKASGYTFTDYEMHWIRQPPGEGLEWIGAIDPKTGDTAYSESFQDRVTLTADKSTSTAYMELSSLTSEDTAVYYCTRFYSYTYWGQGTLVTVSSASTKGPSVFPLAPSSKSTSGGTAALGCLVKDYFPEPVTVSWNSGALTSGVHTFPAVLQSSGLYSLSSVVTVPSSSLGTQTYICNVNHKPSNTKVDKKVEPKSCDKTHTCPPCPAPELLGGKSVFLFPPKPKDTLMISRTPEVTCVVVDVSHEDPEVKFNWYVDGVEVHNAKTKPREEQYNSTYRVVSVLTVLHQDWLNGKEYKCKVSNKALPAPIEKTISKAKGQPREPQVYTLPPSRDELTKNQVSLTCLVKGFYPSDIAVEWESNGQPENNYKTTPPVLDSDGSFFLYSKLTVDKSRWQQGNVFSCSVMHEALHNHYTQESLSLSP
light: DIVMTQSPLSLPVTPGEPASISCQASESLVHSNRNTYLHWYLQKPGQSPQLLIYKVSNRFSGVPDRFSGSGSGTDFTLKISRVEAEDVGVYYCSQNTHVPPTFGQGTKVEIE
notes: copies: 2 + 2
As to B6, the relative binding activity was 2 % of GpH7-B3/GpL16-k0 with human FcγRIIb [9] and 1 % of GpH7-B3/GpL16-k0 in the test with human FcγRIIa(H) [10].

B7: IL6R-BP195/IL6R-L (antibody, human IgG1, name in EU numbering)
heavy: QVQLQESGPGLVKPSETLSLTCAVSGHSISHDHAWSWVRQPPGEGLEWIGFISYSGITNYNPSLQGRVTISRDNSKNTLYLQMNSLRAEDTAVYYCARSLARTTAMDYWGEGTLVTVSSASTKGPSVFPLAPSSKSTSGGTAALGCLVKDYFPEPVTVSWNSGALTSGVHTFPAVLQSSGLYSLSSVVTVPSSSLGTQTYICNVNHKPSNTKVDKKVEPKSCDKTHTCPPCPAPDYLGDDSVFLFPPKPKDTLMISRTPEVTCVVVDVSDEDGEVKFNWYVDGVEVHNAKTKPREEQDNSTYRVVSVLTVLHQDWLNGKEYKCKVSNAALPKPIEKTISKAKGQPREPQVYTLPPSRDELTKNQVSLTCLVKGFYPSDIAVEWESNGQPENNYKTTPPVLDSDGSFFLYSKLTVDKSRWQQGNVFSCSVMHEALHNHYTQESLSLSP
light: DIQMTQSPSSLSASVGDRVTITCRASQDISSYLNWYQQKPGKAPKLLIYYTSRLHSGVPSRFSGSGSGTDFTFTISSLQPEDIATYYCQQGNTLPYTFGQGTKVEIK
notes: Anti-human IL-6 receptor IgG1 Fc variant; also called E233D/L234Y/G237D/P238D/H268D/P271G/Y296D/K326A/A330K; copies: 2 + 2
In the case of B7, the “relative binding activity” value with human FcγRIIa type R was 661 % of IL6R-BF648/IL6R-L.

For the origin of these results see patent US20230257470A1 (published 2023).
